Results published in publication doi:10.1101/2020.04.15.042515 (bioRxiv, 2020).

T1: Smith-Magenis syndrome chromosome region, candidate 8 (SMCR8), wild type (human, UniProt Q8TEV9 1-937)
T1 sequence: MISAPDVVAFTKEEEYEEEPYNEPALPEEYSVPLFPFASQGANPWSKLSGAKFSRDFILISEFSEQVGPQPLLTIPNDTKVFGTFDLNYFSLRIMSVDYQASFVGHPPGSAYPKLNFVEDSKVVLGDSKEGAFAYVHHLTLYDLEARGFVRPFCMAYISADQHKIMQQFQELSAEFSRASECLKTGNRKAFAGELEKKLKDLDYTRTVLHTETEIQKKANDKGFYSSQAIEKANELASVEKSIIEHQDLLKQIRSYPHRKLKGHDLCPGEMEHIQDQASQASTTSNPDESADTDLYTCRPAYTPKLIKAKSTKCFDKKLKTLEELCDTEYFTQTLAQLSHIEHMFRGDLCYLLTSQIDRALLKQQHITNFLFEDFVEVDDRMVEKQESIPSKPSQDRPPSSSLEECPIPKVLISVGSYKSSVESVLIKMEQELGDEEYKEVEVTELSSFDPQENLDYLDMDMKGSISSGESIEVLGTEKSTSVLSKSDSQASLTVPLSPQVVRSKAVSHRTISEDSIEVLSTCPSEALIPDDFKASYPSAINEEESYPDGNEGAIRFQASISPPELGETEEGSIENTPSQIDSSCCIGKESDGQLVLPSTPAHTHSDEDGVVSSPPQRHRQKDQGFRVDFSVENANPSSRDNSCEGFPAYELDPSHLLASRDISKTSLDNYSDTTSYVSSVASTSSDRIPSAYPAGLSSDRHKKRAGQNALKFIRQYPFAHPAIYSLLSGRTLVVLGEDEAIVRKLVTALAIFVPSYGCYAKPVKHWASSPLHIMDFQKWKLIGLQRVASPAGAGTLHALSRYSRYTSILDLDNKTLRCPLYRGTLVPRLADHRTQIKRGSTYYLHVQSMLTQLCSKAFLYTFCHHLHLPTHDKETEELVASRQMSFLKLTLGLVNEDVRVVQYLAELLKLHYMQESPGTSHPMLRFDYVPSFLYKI

B1: C9orf72, wild type, GST tag removed by TEV (in purified SCARF and L-SCARF) (natural protein)
chain: MSTLCPPPSPAVAKTEIALSGKSPLLAATFAYWDNILGPRVRHIWAPKTEQVLLSDGEITFLANHTLNGEILRNAESGAIDVKFFVLSEKGVIIVSLIFDGNWNGDRSTYGLSIILPQTELSFYLPLHRVCVDRLTHIIRKGRIWMHKERQENVQKIILEGTERMEDQGQSIIPMLTGEVIPVMELLSSMKSHSVPEEIDIADTVLNDDDIGDSCHEGFLLNAISSHLQTCGCSVVVGSSAEKVNKIVRTLCLFLTPAERKCSRLCEAESSFKYESGLFVQGLLKDSTGSFVLPFRQVMYAPYPTTHIDVDVNTVKQMPPCHEHIYNQRRYMRSELTAFWRATSEEDMAQDTIIYTDESFTPDLNIFQDVLHRDTLVKAFLDQVFQLKPGLSLRSTFLAQFLLVLHRKALTLIKYIEDDTQKGKKPFKSLRNLKIDLDLTAEGDLNIIMALAEKIKPGLHSFIFGRPFYTSVQERDVLMTF
B2: WD repeat-containing protein 41 (WDR41), wild type, without a tag (natural protein)
chain: MLRWLIGGGREPQGLAEKSPLQTIGEEQTQNPYTELLVLKAHHDIVRFLVQLDDYRFASAGDDGIVVVWNAQTGEKLLELNGHTQKITAIITFPSLESCEEKNQLILTASADRTVIVWDGDTTRQVQRISCFQSTVKCLTVLQRLDVWLSGGNDLCVWNRKLDLLCKTSHLSDTGISALVEIPKNCVVAAVGKELIIFRLVAPTEGSLEWDILEVKRLLDHQDNILSLINVNDLSFVTGSHVGELIIWDALDWTMQAYERNFWDPSPQLDTQQEIKLCQKSNDISIHHFTCDEENVFAAVGRGLYVYSLQMKRVIACQKTAHDSNVLHVARLPNRQLISCSEDGSVRIWELREKQQLAAEPVPTGFFNMWGFGRVSKQASQPVKKQQENATSCSLELIGDLIGHSSSVEMFLYFEDHGLVTCSADHLIILWKNGERESGLRSLRLFQKLEENGDLYLAV

Molecular target: T1, Smith-Magenis syndrome chromosome …
Assay: cryo-EM structure

Binder | binding result
B1 | binds
B2 | binds
